{"source": "paper PMC8350011", "about": "“Interactions between semaphorins and plexin–neuropilin receptor complexes in the membranes of live cells” (The Journal of Biological Chemistry, 2021)", "binders": {"B1": {"name": "plexin A2 (receptor, human, UniProt O75051 35-1894, looked up)", "chain": "MPQFSTFHSENRDWTFNHLTVHQGTGAVYVGAINRVYKLTGNLTIQVAHKTGPEEDNKSCYPPLIVQPCSEVLTLTNNVNKLLIIDYSENRLLACGSLYQGVCKLLRLDDLFILVEPSHKKEHYLSSVNKTGTMYGVIVRSEGEDGKLFIGTAVDGKQDYFPTLSSRKLPRDPESSAMLDYELHSDFVSSLIKIPSDTLALVSHFDIFYIYGFASGGFVYFLTVQPETPEGVAINSAGDLFYTSRIVRLCKDDPKFHSYVSLPFGCTRAGVEYRLLQAAYLAKPGDSLAQAFNITSQDDVLFAIFSKGQKQYHHPPDDSALCAFPIRAINLQIKERLQSCYQGEGNLELNWLLGKDVQCTKAPVPIDDNFCGLDINQPLGGSTPVEGLTLYTTSRDRMTSVASYVYNGYSVVFVGTKSGKLKKIRADGPPHGGVQYEMVSVLKDGSPILRDMAFSIDQRYLYVMSERQVTRVPVESCEQYTTCGECLSSGDPHCGWCALHNMCSRRDKCQQAWEPNRFAASISQCVSLAVHPSSISVSEHSRLLSLVVSDAPDLSAGIACAFGNLTEVEGQVSGSQVICISPGPKDVPVIPLDQDWFGLELQLRSKETGKIFVSTEFKFYNCSAHQLCLSCVNSAFRCHWCKYRNLCTHDPTTCSFQEGRINISEDCPQLVPTEEILIPVGEVKPITLKARNLPQPQSGQRGYECVLNIQGAIHRVPALRFNSSSVQCQNSSYQYDGMDISNLAVDFAVVWNGNFIIDNPQDLKVHLYKCAAQRESCGLCLKADRKFECGWCSGERRCTLHQHCTSPSSPWLDWSSHNVKCSNPQITEILTVSGPPEGGTRVTIHGVNLGLDFSEIAHHVQVAGVPCTPLPGEYIIAEQIVCEMGHALVGTTSGPVRLCIGECKPEFMTKSHQQYTFVNPSVLSLNPIRGPESGGTMVTITGHYLGAGSSVAVYLGNQTCEFYGRSMSEIVCVSPPSSNGLGPVPVSVSVDRAHVDSNLQFEYIDDPRVQRIEPEWSIASGHTPLTITGFNLDVIQEPRIRVKFNGKESVNVCKVVNTTTLTCLAPSLTTDYRPGLDTVERPDEFGFVFNNVQSLLIYNDTKFIYYPNPTFELLSPTGVLDQKPGSPIILKGKNLCPPASGGAKLNYTVLIGETPCAVTVSETQLLCEPPNLTGQHKVMVHVGGMVFSPGSVSVISDSLLTLPAIVSIAAGGSLLLIIVIIVLIAYKRKSRENDLTLKRLQMQMDNLESRVALECKEAFAELQTDINELTSDLDRSGIPYLDYRTYAMRVLFPGIEDHPVLRELEVQGNGQQHVEKALKLFAQLINNKVFLLTFIRTLELQRSFSMRDRGNVASLIMTGLQGRLEYATDVLKQLLSDLIDKNLENKNHPKLLLRRTESVAEKMLTNWFAFLLHKFLKECAGEPLFMLYCAIKQQMEKGPIDAITGEARYSLSEDKLIRQQIEYKTLILNCVNPDNENSPEIPVKVLNCDTITQVKEKILDAVYKNVPYSQRPRAVDMDLEWRQGRIARVVLQDEDITTKIEGDWKRLNTLMHYQVSDRSVVALVPKQTSSYNIPASASISRTSISRYDSSFRYTGSPDSLRSRAPMITPDLESGVKVWHLVKNHDHGDQKEGDRGSKMVSEIYLTRLLATKGTLQKFVDDLFETLFSTVHRGSALPLAIKYMFDFLDEQADRHSIHDTDVRHTWKSNCLPLRFWVNVIKNPQFVFDIHKGSITDACLSVVAQTFMDSCSTSEHRLGKDSPSNKLLYAKDIPSYKSWVERYYADIAKLPAISDQDMNAYLAEQSRLHAVEFNMLSALNEIYSYVSKYSEELIGALEQDEQARRQRLAYKVEQLINAMSIES", "notes": "Two constructs (pEGFP-N1 and pmCh-N1, EcoR1 and Kpn1 sites); the N1 vectors probably put the fluorescent protein at the C-terminus; also called plexin A2-eGFP; plexin A2-mCh; source: Cos-7, transiently transfected, in the membrane of live cells"}}, "experiment_in_all_cases": "PIE-FCCS (pulsed-interleaved excitation fluorescence cross-correlation spectroscopy); single live Cos-7 cells co-expressing eGFP and mCherry fusions, peripheral membrane, no exogenous ligand; 85 to 1245 molecules/μm^2; fraction correlated (fc): median below 0.09 monomer, 0.09-0.17 dimer, above 0.17 higher oligomers (homotypic)", "key": {"plexin A4": {"target": "T1, plexin A4 (human, UniProt Q9HCM2 24-1894)", "T1 construct": "Two constructs (eGFP and mCherry fusions); The N1 vectors probably put the fluorescent protein at the C-terminus; also called plexin A4-eGFP; plexin A4-mCh; source: Cos-7, transiently transfected, in the membrane of live cells", "details": "partners not purified"}, "plexin A4ΔSema": {"target": "T2, plexin A4ΔSema (human, UniProt Q9HCM2 24-1894, deletes residues 39 to 506)", "T2 construct": "also called plexin A4ΔSema-eGFP; plexin A4ΔSema-mCh; source: Cos-7, transiently transfected, in the membrane of live cells", "T2 sequence (looked up)": "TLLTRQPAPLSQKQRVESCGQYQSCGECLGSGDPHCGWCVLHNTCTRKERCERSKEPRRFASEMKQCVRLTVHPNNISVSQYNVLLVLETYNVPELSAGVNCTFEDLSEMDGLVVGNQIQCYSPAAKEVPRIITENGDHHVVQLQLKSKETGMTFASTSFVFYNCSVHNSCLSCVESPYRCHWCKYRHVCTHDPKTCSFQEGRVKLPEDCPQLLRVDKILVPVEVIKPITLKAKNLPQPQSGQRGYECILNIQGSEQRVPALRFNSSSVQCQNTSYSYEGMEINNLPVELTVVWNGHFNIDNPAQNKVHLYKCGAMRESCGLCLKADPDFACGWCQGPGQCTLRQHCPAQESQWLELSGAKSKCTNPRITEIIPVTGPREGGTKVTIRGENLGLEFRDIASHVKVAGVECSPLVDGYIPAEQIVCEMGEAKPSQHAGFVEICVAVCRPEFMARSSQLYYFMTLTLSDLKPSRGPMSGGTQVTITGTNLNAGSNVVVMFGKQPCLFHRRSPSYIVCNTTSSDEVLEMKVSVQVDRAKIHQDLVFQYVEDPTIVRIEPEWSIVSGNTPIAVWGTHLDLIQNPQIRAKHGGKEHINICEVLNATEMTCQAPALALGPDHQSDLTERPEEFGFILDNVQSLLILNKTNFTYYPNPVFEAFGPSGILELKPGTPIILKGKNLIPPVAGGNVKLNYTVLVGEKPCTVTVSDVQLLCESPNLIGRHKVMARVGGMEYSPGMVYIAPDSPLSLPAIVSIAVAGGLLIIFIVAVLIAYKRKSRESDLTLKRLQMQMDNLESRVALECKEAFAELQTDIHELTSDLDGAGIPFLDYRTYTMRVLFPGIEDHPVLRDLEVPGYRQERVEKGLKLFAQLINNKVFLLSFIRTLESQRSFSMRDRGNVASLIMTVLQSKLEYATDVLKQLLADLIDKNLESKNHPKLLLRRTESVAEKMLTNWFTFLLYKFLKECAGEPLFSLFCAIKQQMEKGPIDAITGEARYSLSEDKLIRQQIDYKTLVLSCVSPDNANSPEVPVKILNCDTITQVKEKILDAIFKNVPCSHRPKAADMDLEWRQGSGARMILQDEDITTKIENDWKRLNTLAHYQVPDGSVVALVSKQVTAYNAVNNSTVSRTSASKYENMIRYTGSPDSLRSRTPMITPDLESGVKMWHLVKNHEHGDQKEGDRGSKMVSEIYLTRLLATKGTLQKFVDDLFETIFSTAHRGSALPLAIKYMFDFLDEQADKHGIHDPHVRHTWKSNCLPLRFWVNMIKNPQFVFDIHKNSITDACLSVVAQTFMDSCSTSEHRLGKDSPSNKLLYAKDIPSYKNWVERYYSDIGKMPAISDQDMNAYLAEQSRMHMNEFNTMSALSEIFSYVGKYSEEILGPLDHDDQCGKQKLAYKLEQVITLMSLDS", "details": "partners not purified"}, "[1]": {"target": "the molecule itself"}}, "data": [{"binder": "B1", "values": [{"measurement": "median fraction correlated (fc)", "setting": "plexin A4", "result": 0.08}, {"measurement": "median fraction correlated (fc)", "setting": "plexin A4ΔSema", "result": 0.23}, {"measurement": "median fraction correlated (fc)", "setting": "[1]", "result": 0.09}, {"measurement": "stoichiometry N", "setting": "[1]", "result": 2}]}]}
